# From patent publication US20210277118A1 (Daiichi Sankyo, published 2021)
# Key:
# [1] = biological target: T1, human CD3 expressed on T cells (Jurkat cells, human pan T cells/PBMC) (human, UniProt P07766 23-207); assay: cell ELISA on CD3+ Jurkat cells
# T1 construct: whole, on cells; On T cells CD3 epsilon stands in the CD3 complex with the gamma, delta and zeta chains and the T-cell receptor; only the epsilon chain is written out; also called CD3+ Jurkat cells; human T cells
# Experimental: Cells were centrifuged and seeded in a 96-well filter plate in 50% complete culture medium/50% Blocking buffer. Equal volumes of 2× anti-CD3 scFv-Fc constructs or controls were added to cells and incubated for 1 hour. The plate was washed 4 times using vacuum filtration. An HRP-conjugated anti-human IgG Fc gamma specific secondary antibody was added to the wells and further incubated for 1 hour. The plate is washed 7 times by vacuum filtration followed by the addition of TMB substrate at room temperature. The reaction was stopped by adding 1 M sulfuric acid and supernatant was transferred into a clear 96-well plate. Absorbance (450 nm) was read on a Spectramax 340PC plate reader with path-check correction. Binding of the different scFv-Fc constructs to Jurkat cells and the apparent binding affinities are shown in FIG. 7 and Table 7, respectively.
# [2] = biological target: T1, human CD3 expressed on T cells (Jurkat …); assay: flow cytometry on human T cells
# Experimental: Frozen human pan T cells or PBMCs were thawed and incubated with either media or serial dilutions of the anti-CD3 scFv-Fc constructs for one hour at 4° C. Commercially available SP34-2 antibody was used as positive controls while untreated cultures were used as negative controls. Following incubation with the anti-CD3 scFv constructs, the cells were washed and stained with a panel of conjugated antibodies specific for CD4, CD8, and IgG-Fc. The samples were acquired on a flow cytometer and analyzed using FlowJo version 10.1 software.
# [3] = biological target: T2, cynomolgus monkey CD3 expressed on T cells (cynomolgus pan T cells/PBMC, HSC-F cell line) (cynomolgus monkey, UniProt Q95LI5 22-198); assay: flow cytometry on cynomolgus T cells
# T2 construct: whole, on cells; On T cells in the CD3 complex with the other subunits; only the epsilon chain is written out; also called cyno CD3; cyno T cells
# Experimental: Frozen Cynomolgus monkey PBMCs were thawed then washed with RPMI-1640 media. Pan T cells were then isolated from the PBMCs using a negative isolation kit (Miltenyi Biotec, San Diego, Calif.) as per the manufacturer's instructions. The pan T cells were incubated in media alone or media containing serial dilutions of the anti-CD3 scFv-Fc constructs for one hour at 4° C. Commercially available SP34-2 antibody was used as positive controls while untreated cultures were used as negative controls. Following incubation with the anti-CD3 scFv constructs, the cells were washed and stained with a panel of conjugated antibodies specific for CD4, CD8, and IgG-Fc. The samples were acquired on a flow cytometer and analyzed using FlowJo version 10.1 software.
# [4] = biological target: T3, Recombinant CD3epsilon/delta Fc fusion protein (Sino Biological) (human, UniProt P07766 23-126; P04234 22-105); assay: SPR (ProteOn XPR36), Equilibrium Fit, mean of three runs
# T3 construct: Bought reagent; also called recombinant CD3 fusion protein; human CD3 antigen; not shown: Fc of the bought fusion protein; not described
# Experimental: (§1) All SPR binding experiments were carried out using a BioRad ProteOn XPR36 instrument (Bio-Rad Laboratories, Hercules, Calif.) at 25° C. with 10 mM HEPES, 150 mM NaCl, 3.4 mM EDTA, and 0.05% Tween 20 at pH 7.4. Recombinant CD3epsilon/delta Fc fusion protein (Sino Biological, Wayne, Pa.) was captured on anti-Fc capture sensorchips. Purified antibodies were indirectly captured on the sensorchip by binding the recombinant CD3 fusion protein when injected at 25 μL/min for 240s (resulting in approx. 500 RUs) following a buffer injection to establish a stable baseline. Resultant KD values were determined from binding isotherms using the Equilibrium Fit model with reported values as the mean of three independent runs.
# [5] = biological target: T3, Recombinant CD3epsilon/delta Fc fusion …; assay: SPR (ProteOn XPR36), CD3epsilon/delta Fc fusion captured on anti-Fc chip, variant injected for 240 s; kinetic constants printed above the sensorgrams
# Experimental: as §1
# T3 sequence (P07766 23-126, stated change not applied, chain 1 of 2): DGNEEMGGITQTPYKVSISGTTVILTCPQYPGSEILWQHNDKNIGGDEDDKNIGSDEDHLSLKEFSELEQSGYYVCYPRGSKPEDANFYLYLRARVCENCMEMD
# T3 sequence (P04234 22-105, stated change not applied, chain 2 of 2): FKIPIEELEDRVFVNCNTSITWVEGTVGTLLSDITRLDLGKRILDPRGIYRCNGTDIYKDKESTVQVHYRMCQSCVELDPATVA
# T2 sequence (Q95LI5 22-198): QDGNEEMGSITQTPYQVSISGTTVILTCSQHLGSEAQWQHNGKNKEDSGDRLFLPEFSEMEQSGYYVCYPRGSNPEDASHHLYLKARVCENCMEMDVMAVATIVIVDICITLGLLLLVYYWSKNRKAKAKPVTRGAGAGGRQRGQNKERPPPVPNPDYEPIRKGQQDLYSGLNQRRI
# T1 sequence (P07766 23-207): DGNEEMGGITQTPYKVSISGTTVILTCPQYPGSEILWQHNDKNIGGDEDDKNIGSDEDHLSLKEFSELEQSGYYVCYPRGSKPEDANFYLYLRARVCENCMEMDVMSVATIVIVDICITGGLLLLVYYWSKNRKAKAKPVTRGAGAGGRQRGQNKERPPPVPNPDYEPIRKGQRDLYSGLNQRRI
binder,measurement,setting,value
"variant 19363, monovalent anti-CD3 scFv-heterodimeric Fc (VL hC3E-1_6L3a (D52N), VH hC3E-1) (Fc fusion, not shown: a dimerising Fc or GST; small tags and cut ends, scFv order VH-(GGGGS)3-VL on Fc chain A; chain B is Fc only; also called v19363) scFv: EVQLVESGGGLVQPGGSLRLSCAASGVTFNYYGMSWIRQAPGKGLEWVASITNSGGRIYYPDSVKGRFTISRENTQKTLYLQMNSLRAEDTAVYYCTLDGRDGWVAYWGQGTLVTVSSGGGGSGGGGSGGGGSQFVLTQPPSASGTPGQRVTISCKRNTGNIGSNYVNWYQQLPGTAPKTIIYRNDKRPDGVPDRFSGSIDSSSNSASLAISGLQSEDEADYYCQSYSSGFIFGGGTKLTVL",EC50,[1],1.45 nM
same,EC50,[2],0.7 nM
same,EC50,[3],7.1 nM
same,Kd,[4],6.6 nM
same,Kd,[5],6.62 nM
same,koff,[5],0.00383 s⁻¹
same,kon,[5],578000 M⁻¹ s⁻¹
"variant 18596, monovalent anti-CD3 scFv-heterodimeric Fc (VL hC3E-1, VH hC3E-1a D102E) (Fc fusion, not shown: a dimerising Fc or GST; small tags and cut ends, scFv order VH-(GGGGS)3-VL on Fc chain A; chain B is Fc only; also called v18596) scFv: EVQLVESGGGLVQPGGSLRLSCAASGVTFNYYGMSWIRQAPGKGLEWVASITNSGGRIYYPDSVKGRFTISRENTQKTLYLQMNSLRAEDTAVYYCTLDGREGWVAYWGQGTLVTVSSGGGGSGGGGSGGGGSNFMLTQPHSVSESPGKTVTISCKRNTGNIGSNYVNWYQQHEGSSPTTIIYRDDKRPDGVSDRFSGSIDRSSKSASLTISNLKTEDEADYFCQSYSSGFIFGGGTKLTVL",EC50,[1],2.57 nM
same,EC50,[2],69.5 nM
same,EC50,[3],172 nM
same,Kd,[4],9 nM
"variant 21828, monovalent anti-CD3 scFv-heterodimeric Fc (VL hC3E-1 (D52N), VH hC3E-1(N53S_D102E)) (Fc fusion, scFv order VH-(GGGGS)3-VL on Fc chain A; chain B is Fc only; also called v21828; not shown: Fc-only chain B is also left out) scFv: EVQLVESGGGLVQPGGSLRLSCAASGVTFNYYGMSWIRQAPGKGLEWVASITSSGGRIYYPDSVKGRFTISRENTQKTLYLQMNSLRAEDTAVYYCTLDGREGWVAYWGQGTLVTVSSGGGGSGGGGSGGGGSNFMLTQPHSVSESPGKTVTISCKRNTGNIGSNYVNWYQQHEGSSPTTIIYRNDKRPDGVSDRFSGSIDRSSKSASLTISNLKTEDEADYFCQSYSSGFIFGGGTKLTVL",EC50,[1],~32.8 nM
same,EC50,[2],1.6 nM
same,EC50,[3],104 nM
"variant 21826, monovalent anti-CD3 scFv-heterodimeric Fc (VL hC3E-1 (D52N), VH hC3E-1(N53R_D102E)) (Fc fusion, scFv order VH-(GGGGS)3-VL on Fc chain A; chain B is Fc only; also called v21826; not shown: Fc-only chain B is also left out) scFv: EVQLVESGGGLVQPGGSLRLSCAASGVTFNYYGMSWIRQAPGKGLEWVASITRSGGRIYYPDSVKGRFTISRENTQKTLYLQMNSLRAEDTAVYYCTLDGREGWVAYWGQGTLVTVSSGGGGSGGGGSGGGGSNFMLTQPHSVSESPGKTVTISCKRNTGNIGSNYVNWYQQHEGSSPTTIIYRNDKRPDGVSDRFSGSIDRSSKSASLTISNLKTEDEADYFCQSYSSGFIFGGGTKLTVL",EC50,[1],~36100 nM
same,EC50,[2],1.7 nM
same,EC50,[3],2.5 nM
"variant 18343, monovalent anti-CD3 scFv-heterodimeric Fc (VL hC3E-1-1L1, VH hC3E-1) (Fc fusion, not shown: a dimerising Fc or GST; small tags and cut ends, scFv order VH-(GGGGS)3-VL on Fc chain A; chain B is Fc only; also called v18343) scFv: EVQLVESGGGLVQPGGSLRLSCAASGVTFNYYGMSWIRQAPGKGLEWVASITNSGGRIYYPDSVKGRFTISRENTQKTLYLQMNSLRAEDTAVYYCTLDGRDGWVAYWGQGTLVTVSSGGGGSGGGGSGGGGSQSVLTQPPSASGTPGQRVTISCKRNTGNIGSNYVNWYQQLPGTAPKLLIYRDDKRPDGVPDRFSGSKSGTSASLAISGLQSEDEADYYCQSYSSGFIFGGGTKLTVL",EC50,[1],2.61 nM
same,Kd,[4],30 nM
"variant 19370, monovalent anti-CD3 scFv-heterodimeric Fc (VL hC3E-1_1L1d, VH hC3E-1) (Fc fusion, not shown: a dimerising Fc or GST; small tags and cut ends, scFv order VH-(GGGGS)3-VL on Fc chain A; chain B is Fc only; also called v19370) scFv: EVQLVESGGGLVQPGGSLRLSCAASGVTFNYYGMSWIRQAPGKGLEWVASITNSGGRIYYPDSVKGRFTISRENTQKTLYLQMNSLRAEDTAVYYCTLDGRDGWVAYWGQGTLVTVSSGGGGSGGGGSGGGGSQVVLTQPPSASGTPGQRVTISCKRNTGNIGSNYVNWYQQLPGTAPKLLIYRDDKRPDGVPDRFSGSKSGTSASLAISGLQSEDEADYYCQSYSSGFIFGGGTKLTVL",EC50,[1],3.09 nM
same,EC50,[2],0.7 nM
same,EC50,[3],2.4 nM
same,Kd,[4],6.8 nM
"variant 21829, monovalent anti-CD3 scFv-heterodimeric Fc (VL hC3E-1_1L1d, VH hC3E-1(N53R)) (Fc fusion, scFv order VH-(GGGGS)3-VL on Fc chain A; chain B is Fc only; also called v21829; not shown: Fc-only chain B is also left out) scFv: EVQLVESGGGLVQPGGSLRLSCAASGVTFNYYGMSWIRQAPGKGLEWVASITRSGGRIYYPDSVKGRFTISRENTQKTLYLQMNSLRAEDTAVYYCTLDGRDGWVAYWGQGTLVTVSSGGGGSGGGGSGGGGSQVVLTQPPSASGTPGQRVTISCKRNTGNIGSNYVNWYQQLPGTAPKLLIYRDDKRPDGVPDRFSGSKSGTSASLAISGLQSEDEADYYCQSYSSGFIFGGGTKLTVL",EC50,[1],0.65 nM
same,EC50,[2],0.4 nM
same,EC50,[3],1.6 nM
same,Kd,[4],3.06 nM
same,Kd,[5],3.12 nM
same,koff,[5],0.00382 s⁻¹
same,kon,[5],1.22e+06 M⁻¹ s⁻¹
"variant 19373, monovalent anti-CD3 scFv-heterodimeric Fc (VL hC3E-1_1L1a, VH hC3E-1) (Fc fusion, scFv order VH-(GGGGS)3-VL on Fc chain A; chain B is Fc only; also called v19373; not shown: The Fc-only chain B is not tied by number to this variant) scFv: EVQLVESGGGLVQPGGSLRLSCAASGVTFNYYGMSWIRQAPGKGLEWVASITNSGGRIYYPDSVKGRFTISRENTQKTLYLQMNSLRAEDTAVYYCTLDGRDGWVAYWGQGTLVTVSSGGGGSGGGGSGGGGSQFVLTQPPSASGTPGQRVTISCKRNTGNIGSNYVNWYQQLPGTAPKLLIYRDDKRPDGVPDRFSGSKSGTSASLAISGLQSEDEADYYCQSYSSGFIFGGGTKLTVL",EC50,[1],0.99 nM
same,Kd,[4],3 nM
"variant 19372, monovalent anti-CD3 scFv-heterodimeric Fc (VL hC3E-1_1L1b, VH hC3E-1) (Fc fusion, scFv order VH-(GGGGS)3-VL on Fc chain A; chain B is Fc only; also called v19372; not shown: The Fc-only chain B is not tied by number to this variant) scFv: EVQLVESGGGLVQPGGSLRLSCAASGVTFNYYGMSWIRQAPGKGLEWVASITNSGGRIYYPDSVKGRFTISRENTQKTLYLQMNSLRAEDTAVYYCTLDGRDGWVAYWGQGTLVTVSSGGGGSGGGGSGGGGSQLVLTQPPSASGTPGQRVTISCKRNTGNIGSNYVNWYQQLPGTAPKLLIYRDDKRPDGVPDRFSGSKSGTSASLAISGLQSEDEADYYCQSYSSGFIFGGGTKLTVL",EC50,[1],3.47 nM
same,EC50,[2],0.9 nM
same,EC50,[3],9.3 nM
same,Kd,[4],3.1 nM
"variant 21825, monovalent anti-CD3 scFv-heterodimeric Fc (VL hC3E-1_1L1d, VH hC3E-1(N53R_D102E)) (Fc fusion, scFv order VH-(GGGGS)3-VL on Fc chain A; chain B is Fc only; also called v21825; not shown: Fc-only chain B is also left out) scFv: EVQLVESGGGLVQPGGSLRLSCAASGVTFNYYGMSWIRQAPGKGLEWVASITRSGGRIYYPDSVKGRFTISRENTQKTLYLQMNSLRAEDTAVYYCTLDGREGWVAYWGQGTLVTVSSGGGGSGGGGSGGGGSQVVLTQPPSASGTPGQRVTISCKRNTGNIGSNYVNWYQQLPGTAPKLLIYRDDKRPDGVPDRFSGSKSGTSASLAISGLQSEDEADYYCQSYSSGFIFGGGTKLTVL",EC50,[3],7 nM
"variant 21827, monovalent anti-CD3 scFv-heterodimeric Fc (VL hC3E-1_1L1d, VH hC3E-1(N53S_D102E)) (Fc fusion, scFv order VH-(GGGGS)3-VL on Fc chain A; chain B is Fc only; also called v21827; not shown: Fc-only chain B is also left out) scFv: EVQLVESGGGLVQPGGSLRLSCAASGVTFNYYGMSWIRQAPGKGLEWVASITSSGGRIYYPDSVKGRFTISRENTQKTLYLQMNSLRAEDTAVYYCTLDGREGWVAYWGQGTLVTVSSGGGGSGGGGSGGGGSQVVLTQPPSASGTPGQRVTISCKRNTGNIGSNYVNWYQQLPGTAPKLLIYRDDKRPDGVPDRFSGSKSGTSASLAISGLQSEDEADYYCQSYSSGFIFGGGTKLTVL",EC50,[2],1.9 nM
same,EC50,[3],16.3 nM
"variant 19371, monovalent anti-CD3 scFv-heterodimeric Fc (VL hC3E-1_1L1c, VH hC3E-1) (Fc fusion, scFv order VH-(GGGGS)3-VL on Fc chain A; chain B is Fc only; also called v19371; not shown: The Fc-only chain B is not tied by number to this variant) scFv: EVQLVESGGGLVQPGGSLRLSCAASGVTFNYYGMSWIRQAPGKGLEWVASITNSGGRIYYPDSVKGRFTISRENTQKTLYLQMNSLRAEDTAVYYCTLDGRDGWVAYWGQGTLVTVSSGGGGSGGGGSGGGGSQIVLTQPPSASGTPGQRVTISCKRNTGNIGSNYVNWYQQLPGTAPKLLIYRDDKRPDGVPDRFSGSKSGTSASLAISGLQSEDEADYYCQSYSSGFIFGGGTKLTVL",EC50,[1],1.72 nM
same,EC50,[2],0.5 nM
same,EC50,[3],3.4 nM
same,Kd,[4],7.1 nM
